Results on two molecules are retold here after patent US20200016201A1.

For experiment [1], the target named is HLA-DR on human cells (human). As to the kind of experiment: avidity constant on tonsil lymphocytes.
The target of experiment [2] is HLA-DR on human cells (human). As to the kind of experiment: avidity constant, Scatchard plot analysis on the target tumor cell line (ARH-77).

B1: Lym-1 (antibody, V domains shown)
VH: QLKESGPGLVAPSQSLSITCTISGFSLTSYGVHWVRQPPGKGLEWLVVIWSDGSTTYNSALKSRLSISKDNSKSQVFLKMNSLQTDDTAIYYCASHYGSTLAFASWGHGTLVTVSA
VL: DIQMTQSPASLSASVGETVTIICRASVNIYSYLAWYQQKQGKSPQLLVYNAKILAEGVPSRFSGSGSGTQFSLKINSLQPEDFGSYYCQHHYGTFTFGSGTKLEIK
In turn, B1 returned a Ka in experiment [1] of 8.8e+07 M⁻¹.

B2: Lym-2 (antibody, V domains shown)
VH: EVQLEESGGGLVQPGGSMKLSCVASGFTFSNYWMNWVRQSPEKGLEWVAEIRFKSHNYATHFAESVKGRFTISRDDSKSSVYLQMNNLRAEDTGIYYCTRRIGNSDYDWWYFDVWGAGTSVTVSS
VL: DIVMTQSHKFMSTSVGDRVSVTCKASQNVGNNVAWYQQKPGQSPKVLIYSASYRYSGVPDRFTGSGSGTDFTLTISNVQSEDLAEYFCQQYNTYPFTFGSGTKLEIK
Consider B2, for which the values for the Ka in experiment [1] and in experiment [2] were 1.23e+08 M⁻¹ and 2.33e+08 M⁻¹, respectively.
